According to patent US20130086703:

System: full-length human Keratin 6

Kgp
enzymatic degradation products detected by mass spectrometry (on spot profiling): peptides consisting of the amino acid sequences shown by SEQ ID NOs: 4 and 5 (peptides 6 and 7) were newly identified as Kgp degradation products of human Keratin 6
